# Patent US6515103B1 (priority 1996, dated 2003)
# Several values for one entry are separate records, joined by “and”; a condition that tells them apart may be missing. Identical values can stand only once. Like-named read-outs stand apart in the source and are kept apart here.
# What was measured:
# [1] = test system: Frings audiogenic seizure-susceptible mice; conditions: mouse, in vivo
# [2] = test system: Frings audiogenic seizure-susceptible mice; conditions: for P.I. / PI: Frings audiogenic seizure-susceptible; for P.I. / ED50 / PI / ED50 nmol: mouse, in vivo
# [3] = molecular target: NMDA receptor; assay: spermine-stimulated [3H]MK-801 binding assay, inhibition
# [4] = Frings audiogenic seizure-susceptible
Molecule,IC50 [3],further results
"NC(=O)OCC(COC(N)=O)c1ccccc1 [Felbamate, reference compound]",–,TD50 nmol [1]: no marked toxicity; protected (number/tested) printed in ED50 column ([2]; 30 min): 5/8 protected at 525 and 4/8 protected at 630
"CC(C(O)c1ccc(O)cc1)N1CCC(Cc2ccccc2)CC1 (stereo not shown) [Ifenprodil, reference compound]",–,"TD50 [1, 4]: <25 nmols; P.I. [2]: <1; ED50 [2]: ˜25 nmols"
"Nc1nnc(-c2cccc(Cl)c2Cl)c(N)n1 [Lamotrigine, reference compound]",–,"TD50 nmol [1, 4]: >290 nmol; PI [2]: >2.0; ED50 nmol [2]: 146 nmol"
"C[C@]12N[C@H](Cc3ccccc31)c1ccccc12 [MK801, dizocilpine, reference compound]",–,"TD50 [1, 4]: 1.227 nmols; P.I. [2]: 1.9; ED50 [2]: 0.641 nmols"
"CCC1(c2ccccc2)C(=O)NC(=O)NC1=O [Phenobarbitol, reference compound]",–,"TD50 nmol [1, 4]: 68.8 nmol; PI [2]: 0.5; ED50 nmol [2]: 145 nmol"
"CC1(C)O[C@@H]2[C@@H](CO[C@@]3(COS(N)(=O)=O)OC(C)(C)O[C@@H]23)O1 [Topiramate, reference compound]",–,TD50 nmol [1]: no marked toxicity; ED50 nmol [2]: >150 nmol
"CCCC(CCC)C(=O)O [Valproic Acid, reference compound]",–,"TD50 [1, 4]: >6000 <12,000; P.I. [2]: 1.1-2.2; PI [2]: 1.1-2.2; ED50 nmol [2]: 566 nmol; ED50 [2]: 5644 nmols"
"(A^7,10)1-12 Con G (peptide)",0.3 µM,–
"(A^7,10)1-13 Con G (peptide)",0.253 µM,–
"(A^7,10,14)1-14 Con G (peptide)",0.232 µM,–
"(A^7,10,14)1-15 Con G (peptide)",0.034 µM,–
"(A^7,10,14)1-16 Con G (peptide)",0.037 µM,–
A^3 Con G (peptide),9.1 µM,–
A^4 Con G (peptide),> 20 µM,–
"A^7,10,14 Con G (peptide)",0.088 µM,–
"A^7,Y^10 Con G (peptide)",0.079 µM,–

Molecule,IC50 [3],further results
A^10 Con G (peptide),1.1 µM,–
A^14 Con G (peptide),0.16 µM,–
E^4 Con G (peptide),> 20 µM,–
"E^7,10,14 Con G (peptide)",> 20 µM,–
S^3 Con G (peptide),3.6 µM,–
S^4 Con G (peptide),> 20 µM,–
S^7 Con G (peptide),0.25 µM,–
S^10 Con G (peptide),1.8 µM,–
S^14 Con G (peptide),0.16 µM,–
Sp^3 Con G (peptide),0.9 µM,–
Sp^4 Con G (peptide),> 20 µM,–
Sp^7 Con G (peptide),1.2 µM,–
Sp^10 Con G (peptide),0.56 µM,–
Sp^14 Con G (peptide),1.59 µM,–
Y^3 Con G (peptide),0.96 µM,–
Y^7 Con G (peptide),0.96 µM,–
